We go through 41 sequences from the nanobody polyreactivity screen of Harvey et al. (2022).

The nature of this data set: yeast display, Sf9 membrane polyspecificity reagent, FACS + sequencing; frameworks hold sequencing errors. The essentials:
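Genes from sorted yeast were amplified by colony PCR, read by MiSeq 2 × 250 sequencing and filtered on CDR length. These cells carried a synthetic nanobody library in Saccharomyces cerevisiae BJ5465 and were sorted by FACS into low and high (top ~1%) gates on anti-HA and streptavidin fluorescence. Polyreactivity is labelled according to the gate of origin.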
For the sequence “QVQLVESGGGLVQAGGSLRLSCAASGRTFYNNAMGWYRQAPGKERELVAAISQRTGRTYYADSVKGRFTISRDNAKNTVYLQMNSLKPEDTAVYYCNKVAYYSRRMDYWGQGTQVTVSS”, the “polyreactivity (PSR sort gate)” value is reported as “high polyreactivity”.

Take “QVQLVESGGGLVQAGGSLRLSCAPSGRTFVSNAMGWYRQAPGKERELVAGINWTDDSTYYADSVKGRFTISRDNAKNTVYLQMNSLKPEDTGVYFCGAYSWEFAWPRFDYWGQGTKVTVSS”: the “polyreactivity (PSR sort gate)” value is on record as “low polyreactivity”.

With “QVQLVESGGGLVQAGGSLRLICAASAITFYDYTMGWYRQAPGKERELVAAISRSGGSTYYADSVKGRFTISRDNAKNTVYLQMNSLKPEETAFYYCADYTHYQPEYDYWGQGTQVTVSS”, the “polyreactivity (PSR sort gate)” value is reported as “high polyreactivity”.

As to “QVQLVESGGRLVQAGGRHRLSGAASRNIFDRYALGWNLQAPGKESDLVAGITWSGGSTYYADSVKGRFTISRDNAKNTVYLHMNSLKPEDTAVYYCGQANYYWGQGTQVTVSS”, the “polyreactivity (PSR sort gate)” value is “low polyreactivity”.

For “QVLLVESGGGLVQAGGSLRISCAASVRIVKSYAMGWYRQAPGKESELVAAISRGGRTNYADSVKGRFTISRDNAKNTVYLQMNSLKPEDTAVYYCAARFITPYDHYGYWGQGTQVTVSA”, the “polyreactivity (PSR sort gate)” value is “high polyreactivity”.

In the case of “QVQLVESGGGLVQAGGSLRLSCAASGSTLRTNAMGWYRQAPGKERELVAAISSSAGSTYYADSVKGRFTISRDNAKNTVYLQMNSLKQEDTAVYYCAKQPGSAYGYWGQGTQVTVSS”, the “polyreactivity (PSR sort gate)” value is given as “high polyreactivity”.

Turning to “QVQLVESGGGLVQAGGSLRLSCAASGRIFYGNAMGWYRQAPGKERQLVAAITDGGSTNYADSVKGRFTISRDNAKNTVYLQINSLKPEDTAVYYCNADNILYWSTLDYWGQGTQVTVSS”, the “polyreactivity (PSR sort gate)” value is “low polyreactivity”.

Take “QVQLVESGGGLVQAGGSLRLSRDASGIIIYDYDIGWYRKAPGKERELVAAITSSGGSTYYADSVKGRFTLSRDNAKNTVYLQMNSLIPEDTAVYYCAAATRGSGRRYDYWGQGTQVTVSS”: the “polyreactivity (PSR sort gate)” value is “high polyreactivity”.

Regarding “QVQLVESGGGLVQAGGSLRLSCAASGRTFRYYGMGWYRQAPGKERELVAAISWSGGSTYYADSVKGRYTISRDNAKNSVYLQMNSLKPEDTAVYYCAADGQYYYGFDYWGQGTQVTVSS”, the “polyreactivity (PSR sort gate)” value was “high polyreactivity”.

“QDQLVESGGGLVQAGGSLRLSCAASGITLQLNAMGWYIQAPGKEREFVARISISGGRTYYADSVKGRFTISRDNAKNTVYLQMNSLKPEDTAVYYCAARVGRGYREYGYWGQGTQVTVSS”: the “polyreactivity (PSR sort gate)” value is recorded as “high polyreactivity”.

As to “QVQLVESGGGLVQAGGSLRLSCAASGFTFERYAMGWYRQAPGKERELVAAIDWRGVNTYYADSVKGRFTISRDNAKNTVYLQMNSLKPEDTAVYYCAATRPATYASYDYWGQGTQLTVSS”, the “polyreactivity (PSR sort gate)” value was “high polyreactivity”.

With “QFQQVESGGGLVQAGGSLRLSCAATGSIFSYTMGWYRQAPGKERELVAAITSGGITYYADSVKGRFTISRDNAKNTVYLQMNSLKPEDSAVYYCNAYYPYGLASFYYWGQGTQVTVSS”, the “polyreactivity (PSR sort gate)” value was “low polyreactivity”.

Regarding “QVQLVESGGGLVQAGGSLRLSCAASGSIFVDYAMGWYRPAPGNERELVADITSDGGSTDYADSVKGRFTISRDYAKNTVYLQMHSLNPEDTAVYDCAALKTQVLGVVEYGYDYWGQGTQVTVSS”, the “polyreactivity (PSR sort gate)” value is recorded as “high polyreactivity”.

In the case of “QVQLVESGGGIVQAGGSLRLSCAASGSTFKSYAMGWYRQAPGKERELVAAITHRGSTYYADSVKGSFTISRDNAKNTVYLQMKSLKPEDTAVYYCNVRRICNGRRVDYWGQGTQVTVSS”, the “polyreactivity (PSR sort gate)” value was “high polyreactivity”.

As to “QVQLVESGGGLVQAGGSLRLSCAASGRIFPVYTMGWYRQAPGKERELVAAISGNGASTYYADSVKGRFTISRDNAKNTVYFHMNRLKPEYTAVYYCAAYFYYWGSTFVRYEYWGQGTQVTVSS”, the “polyreactivity (PSR sort gate)” value is on record as “high polyreactivity”.

As for “QVQLQERAAWCRRAGSLRLSCAASGNISDYYFMGWYRQAPGKERELVAAIAPGSNTYYADSVKGRFTISRDNAKNTVYLQMNSLKPEDTAVCFCAADSTQYTWFDYWGQGTQVTVSS”, the “polyreactivity (PSR sort gate)” value is reported as “low polyreactivity”.

With “QVQLVESGGGLVQAGGSLRLSCAASGSTFGWNAMGSYRQAPGKERELVAAISSSGGITYYADSVKGRFTISRDNAKNTVYLQMNSLKPEDTAVYYCAARAINTWFRSGVDYGYYLTMDYWGQGTQVTVSS”, the “polyreactivity (PSR sort gate)” value is “low polyreactivity”.

Turning to “QVQLVESGGGLVQAGGSLRISCAASAHIFDYNAMGWYRQAPGKERELVAAITSGGTTTYADSVKGRFTISRDNAKNTVDLQMNSLKPEDTAVYYCNTYGQTDTYWRYYYWGQGTQVTVSS”, the “polyreactivity (PSR sort gate)” value is given as “high polyreactivity”.

“QVQLVESGGGLVQAGGSLRLSCAASGSIIARYAMGWYRQAPGKERELVAAITWSATSTYYADSVKGRFTISRDNAKNTVYLQMNSLKREDTAVYYCNAGASYFLVISQSRRDYWGQGTQVTVSS”: the “polyreactivity (PSR sort gate)” value is reported as “low polyreactivity”.

As to “QDQLVESGGGLVQAGGSLRLSCDASGSIFPIYAMGWYRQAPGKERELVAAINRSGGSTYYADSVKGRFTISRDNAKNTVYLQMNSLKPEDTAVYYCKADYGYHNQLFWGYYGWSSDHWGQGTQVTVSS”, the “polyreactivity (PSR sort gate)” value is given as “low polyreactivity”.

Regarding “QVQLVESGGGLVQAGGSLRLSCAASGSIFAYNAMGRYRPAPGKERELVAAITSDDSTNYADSVKGSFTISRDNAQNTVYLQMNSLKPEDTAVYDCAAYYYYTYIIGYDYCGQGTQVTVSS”, the “polyreactivity (PSR sort gate)” value is on record as “low polyreactivity”.

Turning to “QVQLVESGRGLVQAGGSLPLRCAASGPTFPFNAMGRYRQAPGKERELVAAISWRDGRTYYADSVKGRFTISRDNAKNTVYLHMNSLKPEDTAVYYCNVVKRRSDWGMDYWGQGTQVSVSS”, the “polyreactivity (PSR sort gate)” value is listed as “high polyreactivity”.

Turning to “QVQLVESGGGLVQAGGSLRLSCAASGSTFQPYAMGWYRQAPGKEREFVAAIRWGTGSTYYADSVKGRFTISRDNAKNTVYLQMNILKPEDTAVYYCAKRRVSASREYYWGQGTQVTVSS”, the “polyreactivity (PSR sort gate)” value is “high polyreactivity”.

Regarding “QVQLVETGGGVVHAGGSLRLSCAASGRIFRVDDMGWYRKAPGQERELVATINPTGGSTSYADSVKGRFTNSRDNAKNTVYLQMNSLTTEDTAVYYCAADCWYSVRKNWSRSGSFPFDYWRQGTQVTVSS”, the “polyreactivity (PSR sort gate)” value is “high polyreactivity”.

For “QVQLQESGGGLVQAGGSLRLSCAASVTISDSGLMGWYRQAPGKERELVAGISSGGITNYADSVKGRFTISRDNAKNTVYLQMNSLKPEVTAVYWGQGTKVTVSS”, the “polyreactivity (PSR sort gate)” value is reported as “low polyreactivity”.

Turning to “QIQLVESGGGLVQAGSSLRLSCAASGRTFNTYAMGGYRPAPGNERELVAAITYNGGSTYYADSVKGRFTISRDNAKTTVYLQMNSLKPEYTAVYDCNVRLRTRYRKYDYWGQGTQVTVSS”, the “polyreactivity (PSR sort gate)” value is given as “high polyreactivity”.

As to “QVQLVESGGGLVQAGGSLRLSCAASGSIFASYAMGWYRQEPGKERELVAAISRRAVRTYYADSVKGRFTISRDNAQNTVYLQMNSLKPEDTAVFYCAKDYRDWRKYDFWGQGTQVTVSS”, the “polyreactivity (PSR sort gate)” value was “high polyreactivity”.

Take “QVQLVESGGGLVQAGGSLRLSCAASGLTFGPYAMGWYRQAPGKERELVAAISLSDTDTYYAASVKGRFTISRDNAKNTGYLQMNSLKPEDTAVYYCAAEDGGLYDYWGQGTQVTVSA”: the “polyreactivity (PSR sort gate)” value is on record as “high polyreactivity”.

On to “QVQLVESGGGLVQAGGSLRLRWAASGRIFLNYAMGLYRQEPGKEREVVAAISRTGGRKYYADSVKGRFTISRDTEKNTVYLQMYSLKPEDTAVYYCDAYYSGFLTYGLDYWGQGTQVTLSS”, for which the “polyreactivity (PSR sort gate)” value is “high polyreactivity”.

In the case of “QVQLVESGGGLVQAGGSLRLTCAASGYTFYYAMGWYRQAPGKERELVAAITRGGSTYYADSVKGRFTISRDNAKNTVYLQMNSLKPEDTAVYYCATEYHAHYASRALYGYDHWGQGTQVTVSS”, the “polyreactivity (PSR sort gate)” value is on record as “low polyreactivity”.

Consider “QVQLVESGGGLVQAGGSLRLSCAASGFTFSWYAMGWYRQAPGKERELVAAISLSGDRTYYADSVKGRFTISRDNAKNSVYLQMNSLKPDDTAVYYCVFAFEYFYWGQGTQVTVSS”, for which the “polyreactivity (PSR sort gate)” value is reported as “low polyreactivity”.

For “QVQLVESGGGLVQAGGSLRLSCAASGSTFSGNTMGWYRQAPGKERELVAAISRGGTRTNYADSVKGRFTISRDNAKNTVYLQMNSLKPEDTAVYYCAAGGSWGQNGYWGQGSQVTVSS”, the “polyreactivity (PSR sort gate)” value was “high polyreactivity”.

With “QVQLVESGGGLVQAGGSLRLSCAASGSIFFGNAMGWYRQAPGKERELVAAISTTGGSTYYADSVKGRFTISRDNAKNTVYLQMNSLKPEDTAVYYCNADRATWWEQWWYDYWGQGTLVTVSS”, the “polyreactivity (PSR sort gate)” value is given as “low polyreactivity”.

As for “QVQLVQSGGGLVQAGGSLRLSCAASGLTNYRYAMGWNRQAPGQEREFVAGISASGGGSSYADSVKGRFTISRDNAKNTVYLQMNRLKPEDTAVYYCAATTTFFVWQGHNYCGQGTQVTVSS”, the “polyreactivity (PSR sort gate)” value is “low polyreactivity”.

As for “QVHLVESGAGLDQAGVRLRLSCAPSGTTFDYNTMGWYRQAPGKERELVASINNSGGSTYYADSVKGRFTISRDNAKNTVYLQMISLKPVDTAVYYCAAVSYRRHFGPYNYWGQGTQVTVSS”, the “polyreactivity (PSR sort gate)” value is given as “low polyreactivity”.

On to “QVQLVESGGGLVQAGGSLRLSCAASGNTFLYYAMGWYRQAPGKEMELVASINLSDGCTYYADSVKGRFTISRDNAKNTVYFQMTSLKPEDTAVYYCAAVFGGYTIYDYWGQGTQVTVSS”, for which the “polyreactivity (PSR sort gate)” value was “low polyreactivity”.

Regarding “QVQLVESGGGLVQAGGSLRLSCAASGSILTDNAMRWYRQAPGKERELVAAITSGGSTYYADSVKGRFTISRDNAKNTVYLQMNSLKPEDTAVYYCNADPYTYSYGMYYWGQGTQVTVSS”, the “polyreactivity (PSR sort gate)” value is listed as “low polyreactivity”.

Regarding “QVQLVESGGGLVQAGGSLRLSCAASGRIFDGYAMGWYRQAPGKERELVATITRGGSTNYADSVKRPFTISRDNAKNTVYIQMNSLKPEDTAVYYCNADIRRHGGYAHEYWGEGTQVTVSS”, the “polyreactivity (PSR sort gate)” value is “low polyreactivity”.

With “QVQLVESGGGLVQAGGSLRLSCAASGYIFDDNAMGWYRQAPGKERELVATNYADSVKGRFTISRDNAKNTVYLQMNSLKPEDTAVFYCAKAGYRSEFEYWGQGTQVTVSS”, the “polyreactivity (PSR sort gate)” value is “low polyreactivity”.

On to “QVQLVESGGGLVQAGGSLRLSCAASGRILGAYAMGWYRQAPGKERELVASISSGGRTYYADSVKGRFTISRDNAKNTVYLQINSLKQEDTAVYYCAAEYFIWSYPRYEYWGQGTQVNVSS”, for which the “polyreactivity (PSR sort gate)” value was “high polyreactivity”.

On to “QVQLVESGGGLVQAGGSLRLSCAASGLTFYSYAMGWYRQAPGKERELVAAITSSDGSTYYADSVKGRFTISRDNAKNTVYLQMNSLKPEDTAVYYCNKDDNSYGLNYWGQGTQVTVSS”, for which the “polyreactivity (PSR sort gate)” value was “low polyreactivity”.
